In publication PMC9364715:
Read-outs that look alike come from different tables or passages of the source.

How the values were obtained:
[1] = target: Ad5 hexon with DogTag inserted at HVR5, on Ad-DogTag virions (human adenovirus 5 (Ad5)) (UniProt P04133); assay: SDS-PAGE gel shift
[2] = target: Ad5 hexon with DogTag inserted at HVR5, on Ad-DogTag virions (human adenovirus 5 (Ad5)) (UniProt P04133); assay: SDS-PAGE gel shift; remark: listed apart in the source

DogCatcher (designed binder)
percent of hexon covalently coupled (% of hexon protein) [1]: > 90

DogCatcher-NANP9 (designed binder)
percent of hexon covalently coupled [1]: > 90 % of hexon

DogCatcher-NANP18 (designed binder)
percent of hexon covalently coupled [2]: > 90 % of hexon
percent of hexon covalently coupled [1]: > 90 % of hexon
